The target in the experiment is T1, phospholipase A2 (PLA2) from cobra venom (cobra, UniProt P60045 8-126).
T1 construct: source: purified to homogeneity from cobra venom
Put plainly: enzyme kinetic studies (competitive); kinetic studies; the peptide binds to PLA2 in a competitive manner; no conditions told. Conditions: both partners purified.

T1 sequence (P60045 8-126): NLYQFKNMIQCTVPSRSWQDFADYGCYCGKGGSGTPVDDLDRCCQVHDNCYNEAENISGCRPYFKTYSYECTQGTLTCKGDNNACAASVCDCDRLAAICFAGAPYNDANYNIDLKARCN

B1: Aβ(36-42) C-terminal heptapeptide Val-Gly-Gly-Val-Val-Ile-Ala (peptide)
peptide: VGGVVIA
notes: C-terminal heptapeptide of the Aβ polypeptide of Alzheimer's disease, residues 36-42; numbers count on: the Aβ peptide; also called VGGVVIA; Aβ_(36-42) peptide
The molecule B1 returned a Ki of 520 nM.

As a reminder, the Ki is a measure of affinity in units of concentration, obtained from inhibition or displacement.

Values taken from paper PMC4075491, “Crystallography based structure elucidation of the complex of C-terminal fragment of Aβ polypeptide of Alzheimer’s disease with phospholipase A2” (BMC Genomics, 2014).
